Like-named read-outs stand apart in the source and are kept apart here.
Legend:
[1] = biological target: T1, recombinant HIV-1 reverse transcriptase protein (HIV-1, UniProt P03367 600-858); assay: SPR (Biacore 3000), sdAb immobilized, analyte 100 nM
T1 construct: also called rHIV-1; HIV-1 RT

[2] = biological target: T1, recombinant HIV-1 reverse transcriptase …; assay: SPR (Biacore 3000), sdAb immobilized (1200 RU), full kinetics, analyte 0-200 nM
[3] = biological target: T1, recombinant HIV-1 reverse transcriptase …; assay: ELISA, plate coated with HIV-1 RT, sdAb at 1 µg/mL, checkerboard of coating, 2° antibody and HRP
[4] = biological target: T1, recombinant HIV-1 reverse transcriptase …
[5] = biological target: T1, recombinant HIV-1 reverse transcriptase …; remark: listed apart in the source
[6] = biological target: T1, recombinant HIV-1 reverse transcriptase …; remark: listed apart in the source
[7] = biological target: T1, recombinant HIV-1 reverse transcriptase …; remark: listed apart in the source
[8] = biological target: T1, recombinant HIV-1 reverse transcriptase …; remark: listed apart in the source
[9] = biological target: T1, recombinant HIV-1 reverse transcriptase …; remark: listed apart in the source

B1: HIV1-9 anti-HIV-1 RT sdAb (VHH)
VHH: EVQLVESGGGSVQAGGSLRLSCAASVYSYNTNCMGWFRQAPGKEREGVAVIYAAGGLTYYADSVKGRFTISQENGKNTVYLTMNRLKPEDTAMYYCAAKRWCSSWNRGEEYNYWGQGTQVTVSS
notes: also called HIV1-9 VHH; HIV1-9 anti-RT sdAb
Which Kd [1] does the source give for B1 here?
Its Kd is 4.25 nM.

And the koff [1]?
Its koff is 0.000379 s⁻¹.

And the kon [1]?
The kon was 89100 M⁻¹ s⁻¹.

And the Kd [2]?
The Kd was 3.85 nM.

What about the koff [2] of the same binder?
Its koff is 0.000731 s⁻¹.

What about the kon [2] of the same binder?
The kon was 190000 M⁻¹ s⁻¹.

What about the signal-to-noise ratio [3] of the same binder?
Its signal-to-noise ratio is greater than 20.

What about the EC50 [4] of the same binder?
The EC50 was 0.0133 µg/mL.

And the EC50 [5]?
The EC50 was 0.0161 µg/mL.

And the EC50 [6]?
Its EC50 is 0.015 µg/mL.

And the EC50 [7]?
Its EC50 is 0.019 µg/mL.

What about the EC50 [8] of the same binder?
Its EC50 is 0.0191 µg/mL.

What about the EC50 [9] of the same binder?
The EC50 was 0.0227 µg/mL.

From US20170121395A1 (SINGH BIOTECHNOLOGY, published 2017)
